Assay results: patent US20210163540, “POLYPEPTIDES SELF-ASSEMBLING INTO NANOPARTICLES” (ETH ZÜRICH, published 2021)

Target: T1, OP (Artificial, UniProt Q9XDM8 SEQ:1-184)
T1 chain: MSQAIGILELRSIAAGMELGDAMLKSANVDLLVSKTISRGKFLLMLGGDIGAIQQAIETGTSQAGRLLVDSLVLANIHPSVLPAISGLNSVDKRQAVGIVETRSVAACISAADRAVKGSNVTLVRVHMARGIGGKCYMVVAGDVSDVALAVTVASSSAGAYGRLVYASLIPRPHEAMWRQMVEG
Assay: EMSA; 2:1 ssDNA to capsid
Details: tags: C-terminal His6; chain copies: 24 (self-assembled cage)

Binder | binding result
GTGCTCGAGACCTTCCACCATC (ssDNA) [ssDNA3] | binds
GGTGATGCGATGCTGAAAAGCGC (ssDNA) [ssDNA4] | binds
GCGATTCAGCAGGCGATTGAAACC (ssDNA) [ssDNA5] | binds
CGATTAGCGGTCTGAATAGCGTGG (ssDNA) [ssDNA6] | binds
GGTTTCAATCGCCTGCTGAATCGC (ssDNA) [ssDNA7] | binds
CCACGCTATTCAGACCGCTAATCG (ssDNA) [ssDNA8] | binds
GAAGGAGATATACATATGAGCCAGGC (ssDNA) [ssDNA9] | binds
